Substitutions are numbered along the chain they refer to.
B1: humanized anti-BCMA antibody Ab2 (antibody, human IgG1, kappa, V domains shown)
VH: QVQLVQSGAEVKKPGASVKVSCKASGYSFSDYEMHWVRQAPGQGLEWIGGIHPGSGGSAYNQKFKGRVTLTVDKSTSTAYMELSSLRSEDTAVYYCTRLDYGYSWAWFPYWGQGTLVTVSA
VL: EIVLTQSPATLSLSPGERATLSCSASSSVIYMNWYQQKPGQSPKIWIYGISNLASGVPARFSGSGSGTDFTLTISSLEPEDFAVYYCQQRSSYPLTFGGGTKVEIKR
B2: humanized anti-BCMA antibody Ab1 (antibody, human IgG1, kappa, V domains shown)
VH: B1 VH with I48M, L70M, V72R, K74T, A79V
VL: B1 VL with S42A, K44R, I45L, W46L, V57I
B3: humanized anti-BCMA antibody Ab3 (antibody, human IgG1, kappa, V domains shown)
VH: B1 VH with R67K, V68A
VL: B1 VL with V3L, S22T, Q41S, D69S

Biological target: T1, human BCMA on NCI-H929 tumor cells (human, UniProt Q02223 1-184)
T1 sequence (looked up): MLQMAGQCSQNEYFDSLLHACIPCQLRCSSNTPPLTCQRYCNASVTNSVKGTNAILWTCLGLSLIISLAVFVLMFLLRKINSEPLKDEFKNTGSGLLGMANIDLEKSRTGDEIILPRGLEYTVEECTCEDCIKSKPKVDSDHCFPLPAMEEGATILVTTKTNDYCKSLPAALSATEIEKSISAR
Experiment: cell-based or functional assay

Binder | Endocytosis efficiency % (0.5 hour) | Endocytosis efficiency % (2 hours)
B1 | 36.7% | 48%
B2 | 36.6% | 49.5%
B3 | 35.5% | 45.7%
